{
  "source": "paper PMC8913300",
  "about": "“Two distinct classes of cochaperones compete for the EEVD motif in heat shock protein 70 to tune its chaperone activities” (The Journal of Biological Chemistry, 2022)",
  "molecules": {"B1": {"name": "DnaJC7: TPR cochaperone that also contains a J-domain (protein, UniProt Q99615 2-494, looked up)", "DnaJ homolog subfamily C …": "AAAAECDVVMAATEPELLDDQEAKREAETFKEQGNAYYAKKDYNEAYNYYTKAIDMCPKNASYYGNRAATLMMLGRFREALGDAQQSVRLDDSFVRGHLREGKCHLSLGNAMAACRSFQRALELDHKNAQAQQEFKNANAVMEYEKIAETDFEKRDFRKVVFCMDRALEFAPACHRFKILKAECLAMLGRYPEAQSVASDILRMDSTNADALYVRGLCLYYEDCIEKAVQFFVQALRMAPDHEKACIACRNAKALKAKKEDGNKAFKEGNYKLAYELYTEALGIDPNNIKTNAKLYCNRGTVNSKLRKLDDAIEDCTNAVKLDDTYIKAYLRRAQCYMDTEQYEEAVRDYEKVYQTEKTKEHKQLLKNAQLELKKSKRKDYYKILGVDKNASEDEIKKAYRKRALMHHPDRHSGASAEVQKEEEKKFKEVGEAFTILSDPKKKTRYDSGQDLDEEGMNMGDFDPNNIFKAFFGGPGGFSFEASGPGNFFFQFG"}},
  "tested_on": "Hsp72–DnaJB4 complex",
  "assay": "Luciferase refolding by Hsp72/DnaJB4 in the presence of TPR cochaperones",
  "format": "biochemical",
  "details": "1 μM Hsp72, 100 nM denatured luciferase, 120 nM DnaJB4; CHIP titration or 10 μM TPR protein; 1 h at 37 °C",
  "method": "Experiments were performed as described ([14]). Briefly, Renilla luciferase (Promega) was denatured in 8 M GdnHCl for 2 h at room temperature. Hsp72 (1 μM) and denatured luciferase (100 nM) were diluted into a working concentration in buffer containing an ATP regenerating system (23 mM Hepes, 120 mM KAc, 1.2 mM MgAc, 15 mM DTT, 61 mM creatine phosphate, 35 units/ml creatine kinase, and 5 ng/μl bovine serum albumin, pH 7.4). A titration series of DnaJB4 was added, and the reaction was initiated with the addition of 2.5 mM ATP. For competition assays with DnaJB4, complexes of Hsp72 (1 μM), denatured luciferase (100 nM), and DnaJB4 (120 nM) were incubated with either a titration of CHIP or 10 μM of indicated TPR protein. In all cases, the assay was allowed to incubate for 1 h at 37 °C in white, 96-well flat-bottom plates (Corning 3990). Luminescence was measured using the SteadyGlo luminescence reagent (Promega), and percent refolded luciferase was calculated using a standard curve of 100 to 0 nM native luciferase.",
  "data": [
    {"molecule": "B1", "values": [
      {"measurement": "effect on client (luciferase) refolding by Hsp72–DnaJB4", "value": "strongly promoted luciferase refolding"}
    ]}
  ]
}
